Experimental data published in US20150132307A1 (Hoffmann-La Roche, published 2015).
Changes are numbered by the printed parent chain.

T1: Recombinant human TWEAK (R&D Systems; Cat. #1090-TW/CF) (human, UniProt O43508 97-249, limits assumed)
T1 sequence: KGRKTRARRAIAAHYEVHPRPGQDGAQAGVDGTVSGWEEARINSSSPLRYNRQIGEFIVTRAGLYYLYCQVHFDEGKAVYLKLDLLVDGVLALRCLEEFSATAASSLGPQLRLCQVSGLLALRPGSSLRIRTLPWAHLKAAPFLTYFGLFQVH

T2: Human recombinant soluble TWEAK (Example 6) (human, UniProt O43508 99-249, limits assumed)
T2 sequence: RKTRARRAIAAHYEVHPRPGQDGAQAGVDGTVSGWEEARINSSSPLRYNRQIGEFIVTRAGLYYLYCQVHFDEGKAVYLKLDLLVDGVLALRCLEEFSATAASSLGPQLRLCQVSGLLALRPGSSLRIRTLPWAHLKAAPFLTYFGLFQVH

T3: Biotinylated human soluble TWEAK (amino acids 99-249 of SEQ ID NO: 68) (human, UniProt O43508 99-249, biotinylated)
T3 construct: also called Human TWEAK
T3 sequence: T2 sequence

T4: human Flag-tagged soluble TWEAK (amino acids 106-249) (human, UniProt O43508 106-249)
T4 construct: The sentence gives amino acids 106-249 without naming the entry; also called Human TWEAK; not shown: Flag tag
T4 sequence: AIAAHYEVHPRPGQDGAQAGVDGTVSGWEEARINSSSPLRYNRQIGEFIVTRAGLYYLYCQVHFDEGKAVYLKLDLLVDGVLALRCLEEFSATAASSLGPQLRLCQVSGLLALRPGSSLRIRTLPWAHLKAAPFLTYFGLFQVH

T5: Mouse soluble TWEAK (untagged, Example 5) (mouse, UniProt O54907 105-249, limits assumed)
T5 construct: also called Murine TWEAK
T5 sequence: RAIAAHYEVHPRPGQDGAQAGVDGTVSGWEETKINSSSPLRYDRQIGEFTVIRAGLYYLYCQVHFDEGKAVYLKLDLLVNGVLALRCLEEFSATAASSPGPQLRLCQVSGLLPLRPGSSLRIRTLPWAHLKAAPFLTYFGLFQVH

B1: Bispecific <Tweak-IL-17> #5 antibody (bispecific antibody, human IgG1, kappa)
heavy: not shown
light: DIQMTQSPSSVSASVGDRVTITCQASQNIYSNLAWYQQKPGKAPKLLIYTASYLASGVPSRFSGSGSGTDYTLTISSLQPEDFATYYCQTAYYNSRPDTVAFGGGTKVEIKRTVAAPSVFIFPPSDEQLKSGTASVVCLLNNFYPREAKVQWKVDNALQSGNSQESVTEQDSKDSTYSLSSTLTLSKADYEKHKVYACEVTHQGLSSPVTKSFNRGEC
B2: <TWEAK> 305 (rabbit) (antibody, V domains shown)
VH: QEQLVESGGGLVQPGGSLTLSCKASGFDFSTYYMSWVRQAPGKGLEWIGTVYVRQGTTYYASWLNGRFTISSDNAQNTVDLKMNSLTAADTATYFCAKGGYNYDDAFVIWGPGTLVTVSF
VL: AIEMTQTPFSVSAAVGGTVTINCQASQNIYSNLAWYQQKPGQPPKLLMYTASYLASGVPSRFKGSGSRTEYTLTISGVQCADAATYYCQTAYYNSRPDTVAFGGGTEVVVK
notes: Rabbit parent antibody
B3: <TWEAK> 304chi (antibody, human IgG1, kappa, V domains shown)
VH: QSLEESGGDLVKPGASLTLTCKASGFSFSSTYYMCWVRQAPGKGLEWIGCIYVGSSGAPYYASWAKGRFTISKTSSTTVALQMTSLTPADTATYVCTRSVHFGDLWGPGTLVTVSS
VL: DVVMTQTPSPVSAAVGGTVTIKCQASQSIGNDLSWYQQKPGQRPKLLIYSVSTLASGVPSRFKGSGSGTEYSLTISDVQCADAATYYCQCIDYGNNYVGNTFGGGTEVVVKR
notes: Chimer: rabbit variable domains with human kappa and human IgG1 constant regions
B4: Humanized <TWEAK> 305- antibody 28 (antibody, V domains shown)
VH: EVQLLESGGGLVQPGGSLTLSCAASGFDFSTYYMSWVRQAPGKGLEWVSTVYVRQGTTYYASWLNGRFTISRDNSKNTLYLQMNSLRAEDTAVYYCAKGGYNYDDAFVIWGQGTLVTVSS
VL: DIQMTQSPSSVSASVGDRVTITCQASQNIYSNLAWYQQKPGKAPKLLIYTASYLASGVPSRFSGSGSGTDYTLTISSLQPEDFATYYCQTAYYNSRPDTVAFGGGTKVEIK
B5: Humanized <TWEAK> 305- antibody 32 (antibody, V domains shown)
VH: B4 VH with T19R, Y80D
VL: B4 VL with S10T, V11L, D70E, Y71F, E81D
B6: Humanized <TWEAK> 305- antibody 33 (antibody, V domains shown)
VH: QVQLVQSGAEVKKPGSSVKVSCKASGFDFSTYYMSWVRQAPGQGLEWMGTVYVRQGTTYYASWLNGRVTITADESTSTAYMELSSLRSEDTAVYYCARGGYNYDDAFVIWGQGTLVTVSS
VL: B4 VL with D1A, Q3R, V11F, V15T, S77C, P80S
B7: Humanized <TWEAK> 305- antibody 31 (antibody, V domains shown)
VH: B4 VH
VL: B4 VL with D1A, Q3R, V11F, V15T, S77C, P80S
B8: Humanized <TWEAK> 305- antibody 30 (antibody, V domains shown)
VH: B4 VH with T19R, R87T
VL: B4 VL with Y71F
B9: Humanized <TWEAK> 305- antibody 34 (antibody, V domains shown)
VH: B4 VH with T19R
VL: B4 VL with D1A, Q3R, V11F, V15T, S77C, P80S
B10: Humanized <TWEAK> 305- antibody 29 (antibody, V domains shown)
VH: B4 VH with T19R, Y80D
VL: B4 VL
B11: Bispecific <Tweak-IL-17> #21 antibody (bispecific antibody, human IgG4 S228P, kappa)
heavy 1: EVQLVESGGGLVQPGGSLRLSCAASGFSLDSYGVHWVRQAPGKGLEWVSVIWSDGTTTYNSALKSRFTISRDNSKNTLYLQMNSLRAEDTAVYYCARDTHYRLYYYAMDYWGQGTTVTVSSASTKGPSVFPLAPCSRSTSESTAALGCLVKDYFPEPVTVSWNSGALTSGVHTFPAVLQSSGLYSLSSVVTVPSSSLGTKTYTCNVDHKPSNTKVDKRVESKYGPPCPPCPAPEFEGGPSVFLFPPKPKDTLMISRTPEVTCVVVDVSQEDPEVQFNWYVDGVEVHNAKTKPREEQFNSTYRVVSVLTVLHQDWLNGKEYKCKVSNKGLPSSIEKTISKAKGQPREPQVCTLPPSQEEMTKNQVSLSCAVKGFYPSDIAVEWESNGQPENNYKTTPPVLDSDGSFFLVSRLTVDKSRWQEGNVFSCSVMHEALHNHYTQKSLSLSLGK
heavy 2: not shown
light: DIVMTQSPLSLPVTPGEPASISCRSSQSLVHSNGDTYFHWYLQKPGQSPQLLIYKVSNRFSGVPDRFSGSGSGTDFTLKISRVEAEDVGVYYCSQTTHAPFTFGQGTKLEIKRTVAAPSVFIFPPSDEQLKSGTASVVCLLNNFYPREAKVQWKVDNALQSGNSQESVTEQDSKDSTYSLSSTLTLSKADYEKHKVYACEVTHQGLSSPVTKSFNRGEC

These binders were tested against T1, Recombinant human TWEAK (R&D Systems; …) (assay: cell-based or functional assay).

IC50 (nM) per valency, Tweak induced HFLS proliferation (CellTiter Glo) [nM] | Binder
0.152 | B1

Each binder was assayed against T2, Human recombinant soluble TWEAK … (assay: cell-based or functional assay).

Inhibition of IL-8 Secretion IC50 [ng/ml] (A375 cells) [ng/mL] | Binder
99 | B2
122 | B3

The binders below were run against T3, Biotinylated human soluble TWEAK (amino …) (assay: SPR (Biacore), biotinylated soluble TWEAK on streptavidin chip, 25 C).
Description: (§1) A Biacore 2000 instrument was used with a Biacore streptavidin coated sensor mounted into the system. The system buffer HBS-ET (10 mM HEPES pH 7.4, 150 mM NaCl, 1 mM EDTA, 0.05% Tween® 20) was used at a flow rate of 100 μl/min. The sample buffer was the system buffer. Biotinylated human soluble TWEAK (amino acids 99-249 of SEQ ID NO: 68) and biotinylated murine soluble TWEAK (amino acids 81-225 of SEQ ID NO: 69) was immobilized on different flow cells on the SA sensor at 150 RU each. The flow cell FC1 was used as a blank reference cell. Each antibody was injected into the system as an analyte at 100 nM at 100 μl/min for 2 min association time. The dissociation of the immunecomplexes were monitored for 5 min. The sensor surface was washed with HBS-ET for 10 seconds and regenerated using 2×2 minutes injections with 10 mM glycine pH 2.25. This procedure was done at 25° C. The kinetically rate limiting step of the complex dissociation phase in the interval [240 s-300 s] was taken to calculate the dissociation rate kd [1/s] (Biacore Evaluation Software 4.0). According to the equation t1/2 diss=ln(2)/(60×kd), the half-life of the immunocomplexes in minutes was calculated.

Biacore t/2 diss. [min] 25° C. human [min] | Binder
87 | B4
67 | B5
127 | B6
115 | B7
50 | B8
158 | B9
146 | B10

What follows are binders tested against T3, Biotinylated human soluble TWEAK (amino …) (assay: SPR (Biacore 2000), biotinylated soluble TWEAK on streptavidin chip, antibody 100 nM as analyte, 25 C).
Description: as §1

t/2 diss [min] 25° C. [min] | Binder
37 | B3

Each binder was assayed against recombinant human IL-17 (Peprotech #200-17) (human, UniProt Q16552 20-155) (assay: cell-based or functional assay).
Chain of recombinant human IL-17 (Peprotech #200-17) (Q16552 20-155 limits assumed): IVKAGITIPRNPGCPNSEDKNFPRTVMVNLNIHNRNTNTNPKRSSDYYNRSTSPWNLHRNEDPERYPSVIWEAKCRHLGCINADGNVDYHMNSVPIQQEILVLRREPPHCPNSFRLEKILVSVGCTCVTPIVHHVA

IL-6 IC50 [nM] per valency (IL-17 induced cytokine production, HFLS-RA) [nM] | IL-8 IC50 [nM] per valency (IL-17 induced cytokine production, HFLS-RA) [nM] | Binder
1.32 | 1.12 | B1
2.71 | 1.71 | B11

What follows are binders tested against T4, human Flag-tagged soluble TWEAK (amino …) (assay: receptor interaction ELISA: Flag-TWEAK 2.5 ng/ml preincubated with antibody, then on coated human Fn14:Fc (competitor m21)).
Description: (§2) 96-well Maxisorp® plates (Nunc) were coated with 100 μl 1 μg/ml human Fn14:Fc (extracellular domain of human Fn14 (amino acids 1-75 of SEQ ID NO: 98) fused to Fc portion of human IgG1) in PBS per well for 1.5 h at room temperature and blocked with a solution of 5% FBS in PBS for 30 minutes at room temperature under shaking. […] After washing the Fn14-coated plate once with wash buffer (0.1% Tween® 20 in PBS), 100 μl of the TWEAK-antibody solution were transferred to each well and the plate was incubated for 1 h at room temperature, followed by four washes with wash buffer. Wells were filled with 100 μl of anti-FLAG-HRP detection antibody, diluted 1:5000 in blocking buffer, and incubated for 1 h at room temperature. After four more wash steps, the signal was developed by addition of 100 μl 3,3,5,5-Tetramethylbenzidine (TMB) solution for approximately ten minutes. The reaction was stopped by adding 100 μl of 1 N HCl, and absorbance measured at 450 nm (reference wavelength 620 nm).

IC50 [ng/mL] | Binder
2.5 | B2
2.6 | B3

These binders were tested against T5, Mouse soluble TWEAK (untagged, Example …) (assay: receptor interaction ELISA: mouse soluble TWEAK preincubated with antibody, then on coated mouse Fn14:Fc (competitor m22)).
Description: Briefly, Maxisorp plates were coated with mouse Fn14:Fc (extracellular domain of mouse Fn14 (amino acids 1-75 of SEQ ID NO: 98) fused to Fc portion of human IgG1) as described above for human Fn14:Fc, followed by blocking and washing. […] After 1 h of incubation at room temperature and four washes, biotinylated anti-mouse TWEAK antibody at 125 ng/ml in blocking buffer was added for 1 h at room temperature, followed by another four wash steps. The TWEAK antibody was detected by incubation with streptavidin-HRP, diluted 1:5000 in blocking buffer, for 30 minutes at room temperature. Signal was developed and absorbance measured as described above.

IC50 [ng/mL] | Binder
6.5 | B4
5.4 | B5
6.7 | B6
7.1 | B7
7.6 | B8
5.9 | B9
5.7 | B10

These binders were tested against T3, Biotinylated human soluble TWEAK (amino …) (assay: SPR (Biacore), biotinylated soluble TWEAK on streptavidin chip, 37 C).

Biacore t/2 diss. [min] 37° C. human [min] | Binder
115 | B4
50 | B5
99 | B6
151 | B7
45 | B8
185 | B9
195 | B10

These binders were tested against T4, human Flag-tagged soluble TWEAK (amino …) (assay: receptor interaction ELISA: Flag-TWEAK preincubated with antibody, then on coated human Fn14:Fc (competitor m21)).
Description: as §2

IC50 [ng/mL] | Binder
1.5 | B4
1.5 | B5
1.7 | B6
1.7 | B7
2.3 | B8
1.9 | B9
1.8 | B10

Target: T2, Human recombinant soluble TWEAK …
Test: cell-based or functional assay
Remark: another data set of the same source

Inhibition of IL8-Secretion [ng/ml] (A375 cells) [ng/mL] | Binder
165 | B4
134 | B5
26 | B6
94 | B7
207 | B8
24 | B9
78 | B10
